What was measured:
mouse CD40 on cells [1] = molecular target: T1, mouse CD40 on cells (mouse, UniProt P27512 20-289); assay: cell-based or functional assay
T1 sequence (looked up): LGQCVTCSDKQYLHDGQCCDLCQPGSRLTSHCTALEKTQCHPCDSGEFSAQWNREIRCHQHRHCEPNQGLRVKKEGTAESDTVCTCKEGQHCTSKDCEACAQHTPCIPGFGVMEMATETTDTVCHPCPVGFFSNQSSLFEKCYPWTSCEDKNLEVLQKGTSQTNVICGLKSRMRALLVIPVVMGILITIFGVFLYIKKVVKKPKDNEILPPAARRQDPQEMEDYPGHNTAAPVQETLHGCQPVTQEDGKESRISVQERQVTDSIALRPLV

mouse CD40 on cells [2] = molecular target: T1, mouse CD40 on cells; assay: binding to mouse CD40-positive macrophages
mouse CD40 protein = molecular target: T2, mouse CD40 protein (mouse, UniProt P27512 20-193, limits assumed); assay: SPR
T2 sequence (looked up): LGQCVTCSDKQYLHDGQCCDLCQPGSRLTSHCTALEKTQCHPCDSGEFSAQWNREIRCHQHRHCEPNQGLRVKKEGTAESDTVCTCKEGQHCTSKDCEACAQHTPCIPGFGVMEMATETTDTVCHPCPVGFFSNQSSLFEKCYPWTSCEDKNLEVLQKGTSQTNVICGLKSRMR

mouse FAP protein = molecular target: T3, mouse FAP protein (mouse, UniProt P97321 26-761); assay: SPR
T3 sequence (looked up): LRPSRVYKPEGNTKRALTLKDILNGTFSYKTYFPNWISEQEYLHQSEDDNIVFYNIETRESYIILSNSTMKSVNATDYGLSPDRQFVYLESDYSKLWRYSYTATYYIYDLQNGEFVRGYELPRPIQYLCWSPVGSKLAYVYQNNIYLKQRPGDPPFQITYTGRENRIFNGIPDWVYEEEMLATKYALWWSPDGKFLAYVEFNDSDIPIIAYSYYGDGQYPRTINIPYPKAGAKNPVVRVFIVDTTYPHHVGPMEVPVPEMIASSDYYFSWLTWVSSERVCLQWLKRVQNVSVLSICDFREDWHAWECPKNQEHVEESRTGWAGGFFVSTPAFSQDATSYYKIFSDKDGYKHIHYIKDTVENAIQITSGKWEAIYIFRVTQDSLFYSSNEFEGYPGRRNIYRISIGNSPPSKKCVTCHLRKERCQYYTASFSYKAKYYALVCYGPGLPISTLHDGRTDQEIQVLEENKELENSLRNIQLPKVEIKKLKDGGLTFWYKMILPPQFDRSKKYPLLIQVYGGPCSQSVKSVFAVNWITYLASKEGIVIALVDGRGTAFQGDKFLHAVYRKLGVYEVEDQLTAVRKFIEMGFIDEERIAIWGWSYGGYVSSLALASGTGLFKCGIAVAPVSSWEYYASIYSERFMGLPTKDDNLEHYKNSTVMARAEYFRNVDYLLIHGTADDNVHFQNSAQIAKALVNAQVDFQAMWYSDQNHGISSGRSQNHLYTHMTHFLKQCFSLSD

mouse CD40 on cells [3] = molecular target: T1, mouse CD40 on cells; assay: binding to mouse CD40-positive B cells
mouse FAP on HEK cells = molecular target: T4, mouse FAP on HEK cells (mouse, UniProt P97321 1-761); assay: binding to mouse FAP-positive HEK cells
T4 construct: whole, on cells; also called Mouse FAP-positive HEK cells; mouse FAP-expressing HEK cells
T4 sequence (looked up): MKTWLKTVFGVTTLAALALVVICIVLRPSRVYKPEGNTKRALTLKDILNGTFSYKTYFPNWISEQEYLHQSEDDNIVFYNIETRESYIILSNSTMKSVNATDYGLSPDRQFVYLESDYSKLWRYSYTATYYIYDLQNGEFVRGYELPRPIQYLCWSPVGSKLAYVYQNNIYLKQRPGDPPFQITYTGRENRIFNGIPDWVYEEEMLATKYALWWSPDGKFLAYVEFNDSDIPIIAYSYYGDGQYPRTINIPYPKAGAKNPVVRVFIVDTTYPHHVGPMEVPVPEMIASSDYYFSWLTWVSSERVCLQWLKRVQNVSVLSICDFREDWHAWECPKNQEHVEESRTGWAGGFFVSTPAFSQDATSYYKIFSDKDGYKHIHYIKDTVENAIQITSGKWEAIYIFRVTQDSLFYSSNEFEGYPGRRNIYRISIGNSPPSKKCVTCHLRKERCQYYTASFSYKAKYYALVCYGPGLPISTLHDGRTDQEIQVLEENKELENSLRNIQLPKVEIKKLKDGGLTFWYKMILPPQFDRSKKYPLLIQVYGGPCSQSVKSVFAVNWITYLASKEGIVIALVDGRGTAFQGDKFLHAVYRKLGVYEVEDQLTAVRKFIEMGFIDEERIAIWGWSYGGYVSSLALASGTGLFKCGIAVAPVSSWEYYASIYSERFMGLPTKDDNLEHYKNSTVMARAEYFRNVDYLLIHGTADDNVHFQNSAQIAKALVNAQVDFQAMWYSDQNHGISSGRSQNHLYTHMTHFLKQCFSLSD

- CCL22 secretion, murine BMDM + MC38-FAP co-culture, EC50 (mouse CD40 on cells [1]): 1.02 nM
- IL12p40 secretion, murine BMDM + MC38-FAP co-culture, EC50 (mouse CD40 on cells [1]): 1.43 nM
- EC50 (mouse CD40 on cells [2]): 7.3 nM
- Kd (mouse CD40 protein): 45.8 nM
- Kd (mouse FAP protein): 3.4 nM
- EC50 (mouse CD40 on cells [3]): 12.1 nM
- EC50 (mouse FAP on HEK cells): 3.17 nM
B1: mCD40×FAP.LP62 (2+1 anti-mouse CD40×FAP bispecific antibody) (bispecific antibody)
chain: EVQLLESGGGLVQPGGSLRLSCAASGFTFSSRGMSWVRQAPGKCLEWVSFISSSGTYVYYADSVKGRFTISRDNSKNTLYLQMNSLRAEDTAVYYCARDLPRTGVYFGMDVWGQGTTVTVSSGGGGSGGGGSGGGGSGGGGSDIQMTQSPSSLSASVGDRVTITCRASQSIFNYLNWYQQKPGKAPKLLIYGASTLQSGVPSRFSGSGSGTDFTLTISSLQPEDFATYYCQESYSTPYTFGCGTKVEIK

Reference: patent publication US20250376536A1 (Bristol-Myers Squibb, published 2025)
